61 substances from the Human Domainome abundance scans (Beltran et al. 2025) can be followed below.

± gives the uncertainty stated by the source.

The data set is described as follows: abundance fitness (aPCA) (normalised: wild type 0, dead -1); higher = more abundant; growth selection in yeast, the domain comes from the species named. The settings on record: Homo sapiens.
Regarding “E3 ubiquitin-protein ligase NEDD4-like N215L, Q96PU5”, the abundance fitness was -0.205 ± 0.07.

Regarding “E3 ubiquitin-protein ligase NEDD4-like N215M, Q96PU5”, the abundance fitness was -0.077 ± 0.062. Regarding “E3 ubiquitin-protein ligase NEDD4-like N215P, Q96PU5”, the abundance fitness was -0.171 ± 0.074. As for “E3 ubiquitin-protein ligase NEDD4-like N215Q, Q96PU5”, the abundance fitness is -0.081 ± 0.091. For “E3 ubiquitin-protein ligase NEDD4-like N215R, Q96PU5”, the abundance fitness was -0.193 ± 0.063. Take “E3 ubiquitin-protein ligase NEDD4-like N215S, Q96PU5”: the abundance fitness was -0.013 ± 0.07.

For “E3 ubiquitin-protein ligase NEDD4-like N215T, Q96PU5”, the abundance fitness is -0.118 ± 0.095. Then “E3 ubiquitin-protein ligase NEDD4-like N215V, Q96PU5”, with -0.263 ± 0.071.

“E3 ubiquitin-protein ligase NEDD4-like N215W, Q96PU5”: the abundance fitness was -0.293 ± 0.069. As to “E3 ubiquitin-protein ligase NEDD4-like N215Y, Q96PU5”, the abundance fitness is -0.173 ± 0.1. Then “E3 ubiquitin-protein ligase NEDD4-like N216A, Q96PU5”, with 0.016 ± 0.056; and “E3 ubiquitin-protein ligase NEDD4-like N216C, Q96PU5”, with -0.09 ± 0.098.

For “E3 ubiquitin-protein ligase NEDD4-like N216D, Q96PU5”, the abundance fitness was -0.142 ± 0.085. For “E3 ubiquitin-protein ligase NEDD4-like N216E, Q96PU5”, the abundance fitness is -0.188 ± 0.076. Substance “E3 ubiquitin-protein ligase NEDD4-like N216F, Q96PU5” gave an abundance fitness of 0.052 ± 0.091. On to “E3 ubiquitin-protein ligase NEDD4-like N216G, Q96PU5”, for which the abundance fitness stood at 0.127 ± 0.052. The value for “E3 ubiquitin-protein ligase NEDD4-like N216I, Q96PU5” was 0.014 ± 0.079. Then “E3 ubiquitin-protein ligase NEDD4-like N216L, Q96PU5”, with -0.001 ± 0.056; and “E3 ubiquitin-protein ligase NEDD4-like N216M, Q96PU5”, with 0.18 ± 0.094; and “E3 ubiquitin-protein ligase NEDD4-like N216P, Q96PU5”, with -0.147 ± 0.089. Regarding “E3 ubiquitin-protein ligase NEDD4-like N216Q, Q96PU5”, the abundance fitness is -0.343 ± 0.1. As to “E3 ubiquitin-protein ligase NEDD4-like N216R, Q96PU5”, the abundance fitness is -0.239 ± 0.065.

The substance “E3 ubiquitin-protein ligase NEDD4-like N216S, Q96PU5” yielded an abundance fitness of 0.065 ± 0.058.

The substance “E3 ubiquitin-protein ligase NEDD4-like N216T, Q96PU5” returned an abundance fitness of 0.127 ± 0.086.

For the substance “E3 ubiquitin-protein ligase NEDD4-like N216V, Q96PU5”, the abundance fitness was -0.151 ± 0.056. Regarding “E3 ubiquitin-protein ligase NEDD4-like N216W, Q96PU5”, the abundance fitness was determined as 0.029 ± 0.062. As to “E3 ubiquitin-protein ligase NEDD4-like P191A, Q96PU5”, the abundance fitness was -0.044 ± 0.07. Turning to “E3 ubiquitin-protein ligase NEDD4-like P191C, Q96PU5”, the abundance fitness is -0.155 ± 0.087. For the substance “E3 ubiquitin-protein ligase NEDD4-like P191D, Q96PU5”, the abundance fitness is -0.086 ± 0.11.

For “E3 ubiquitin-protein ligase NEDD4-like P191E, Q96PU5”, the abundance fitness is -0.086 ± 0.07. In the case of “E3 ubiquitin-protein ligase NEDD4-like P191F, Q96PU5”, the abundance fitness is -0.326 ± 0.12. In the case of “E3 ubiquitin-protein ligase NEDD4-like P191G, Q96PU5”, the abundance fitness is -0.118 ± 0.054. With “E3 ubiquitin-protein ligase NEDD4-like P191H, Q96PU5”, the abundance fitness is -0.072 ± 0.073. In the case of “E3 ubiquitin-protein ligase NEDD4-like P191I, Q96PU5”, the abundance fitness was found to be 0.152 ± 0.12. Regarding “E3 ubiquitin-protein ligase NEDD4-like P191K, Q96PU5”, the abundance fitness amounted to 0.024 ± 0.076. For the substance “E3 ubiquitin-protein ligase NEDD4-like P191M, Q96PU5”, the abundance fitness was -0.378 ± 0.057. In turn, “E3 ubiquitin-protein ligase NEDD4-like P191N, Q96PU5” yielded an abundance fitness of 0.051 ± 0.064. Then “E3 ubiquitin-protein ligase NEDD4-like P191Q, Q96PU5”, with 0.024 ± 0.074; and “E3 ubiquitin-protein ligase NEDD4-like P191R, Q96PU5”, with -0.167 ± 0.061. Substance “E3 ubiquitin-protein ligase NEDD4-like P191S, Q96PU5” yielded an abundance fitness of 0.037 ± 0.069. “E3 ubiquitin-protein ligase NEDD4-like P191T, Q96PU5” yielded an abundance fitness of 0.125 ± 0.077. On to “E3 ubiquitin-protein ligase NEDD4-like P191V, Q96PU5”, for which the abundance fitness is -0.028 ± 0.058. “E3 ubiquitin-protein ligase NEDD4-like P191W, Q96PU5”: the abundance fitness is -0.378 ± 0.058. For “E3 ubiquitin-protein ligase NEDD4-like P191Y, Q96PU5”, the abundance fitness is -0.432 ± 0.14. Consider “E3 ubiquitin-protein ligase NEDD4-like P192A, Q96PU5”, for which the abundance fitness is -0.021 ± 0.078. The value for “E3 ubiquitin-protein ligase NEDD4-like P192D, Q96PU5” was -0.173 ± 0.063; that for “E3 ubiquitin-protein ligase NEDD4-like P192E, Q96PU5” was -0.369 ± 0.079. On to “E3 ubiquitin-protein ligase NEDD4-like P192F, Q96PU5”, for which the abundance fitness was -0.296 ± 0.075. “E3 ubiquitin-protein ligase NEDD4-like P192G, Q96PU5”: the abundance fitness was -0.064 ± 0.06. “E3 ubiquitin-protein ligase NEDD4-like P192H, Q96PU5”: the abundance fitness was -0.1 ± 0.071. Turning to “E3 ubiquitin-protein ligase NEDD4-like P192I, Q96PU5”, the abundance fitness was -0.269 ± 0.1. With “E3 ubiquitin-protein ligase NEDD4-like P192K, Q96PU5”, the abundance fitness is -0.086 ± 0.095.

Turning to “E3 ubiquitin-protein ligase NEDD4-like P192L, Q96PU5”, the abundance fitness was -0.173 ± 0.072. “E3 ubiquitin-protein ligase NEDD4-like P192M, Q96PU5”: the abundance fitness came out at 0.094 ± 0.082.

Consider “E3 ubiquitin-protein ligase NEDD4-like P192N, Q96PU5”, for which the abundance fitness is -0.014 ± 0.059.

On to “E3 ubiquitin-protein ligase NEDD4-like P192Q, Q96PU5”, for which the abundance fitness came to 0.02 ± 0.076. “E3 ubiquitin-protein ligase NEDD4-like P192R, Q96PU5” showed an abundance fitness of 0.012 ± 0.055. As to “E3 ubiquitin-protein ligase NEDD4-like P192S, Q96PU5”, the abundance fitness was -0.201 ± 0.082. For “E3 ubiquitin-protein ligase NEDD4-like P192W, Q96PU5”, the abundance fitness was -0.484 ± 0.072. For the substance “E3 ubiquitin-protein ligase NEDD4-like P192Y, Q96PU5”, the abundance fitness is -0.31 ± 0.068. For the substance “E3 ubiquitin-protein ligase NEDD4-like P193A, Q96PU5”, the abundance fitness was -0.12 ± 0.068.
